These results are taken from publication PMC4259341.

This data set is described as follows: western blot of conditioned medium, 24 h. The following applies: glycan lost; control: wild type. Background: Immunoblotting shows a protein as a band on a membrane.

For antithrombin: S137T, the expression_or_secretion entry was “no change”.

With antithrombin: S137A, the expression_or_secretion entry is “no change”.
